The target in this assay is T1, Hemagglutinin (HA) of human influenza A virus A2/Aichi/2/68 (H3N2サブタイプ) (human influenza A virus A2/Aichi/2/68 …, UniProt P03437 17-566).
T1 construct: whole, on cells; also called A/Aichi/2/68; A2/Aichi/2/68

B1: モノクローナル抗体C179 (monoclonal antibody C179) (antibody, V domains shown)
VH: EVKLVESGGGLVQPGGSLRLSCGTSGFTLTDDYMTWVRQPPGKALEWLGFIRDRANGYTTEYSASVKGRFTISRDNSQSIVYLQMNTLRVEDSATYYCARPKGYFPYAMDYWGQGT
VL: DIQMTQSPASQSASLGESVTITCLASQTIGTWLAWYQQKPGKSPQLLIYAATSLADGVPSRFSGSGSGTKFSFKISSLQAEDFVSYYCQQLYSTPWTF
notes: also called antibody of Hybridoma C179 (FERM BP-4517)
In the case of B1, the binding result is “no binding”.

The values above are taken from JPH07265077A (dated 1995).
